Reference: patent publication US20200024330A1

Columns and labels:
Assay in all cases: cell-based or functional assay
[1] = target: HIV-1 6535.3 Env (pseudovirus) (HIV-1)
[2] = target: HIV-1 Env of isolate 92UG046 (subtype D) (HIV-1)
[3] = target: HIV-1 Env of isolate 98CN009 (subtype CRF07_BC) (HIV-1)
[4] = target: HIV-1 Env of isolate MG RM-D-022 (subtype D) (HIV-1)
[5] = target: HIV-1 Env of isolate MGRM-C-013 (pseudovirus) (HIV-1 isolate MGRM-C-013, subtype C)
[6] = target: HIV-1 Env of isolate MGRM-C-027 (pseudovirus) (HIV-1 isolate MGRM-C-027, subtype C)
[7] = target: HIV-1 Env of isolate MGRM-F1-017 (HIV-1)
[8] = target: HIV-1 Env of isolate MGRM-F1-020 (HIV-1)
[9] = target: HIV-1 MGRM-Chronic-B-012 Env (pseudovirus) (HIV-1)
[10] = target: HIV-1 92RW020 envelope glycoprotein (Env) (HIV-1)
[11] = target: HIV-1 Env of isolate 92UG031 (HIV-1)
[12] = target: HIV-1 Env of isolate 92UG037 (HIV-1)
[13] = target: HIV-1 Env of isolate 92WR009 (HIV-1)
[14] = target: HIV-1 Env of isolate MGRM-AE-002 (HIV-1)
[15] = target: HIV-1 Env of isolate 92UG046 (HIV-1)
[16] = target: HIV-1 Env of isolate 98IN022 (HIV-1)
[17] = target: HIV-1 Env of isolate MGRM-A-007 (clade A), on pseudovirus (HIV-1)
[18] = target: HIV-1 Env of isolate MGRM-A-011 (clade A), on pseudovirus (HIV-1)
[19] = target: HIV-1 Env of isolate MGRM-AE-005 (CRF01_AE), on pseudovirus (HIV-1)
[20] = target: HIV-1 Env of isolate MGRM-AE-006 (CRF01_AE), on pseudovirus (HIV-1)
[21] = target: HIV-1 Env of isolate MGRM-AG-011 (CRF_AG), on pseudovirus (HIV-1)
[22] = target: HIV-1 Env of isolate MGRM-AG-013 (CRF_AG), on pseudovirus (HIV-1)
[23] = target: HIV-1 Env of isolate MGRM-C-023 (HIV-1)
[24] = target: HIV-1 Env of isolate MGRM-D-016 (HIV-1)
[25] = target: HIV-1 Env of isolate MGRM-F1-008 (subtype F), on pseudovirus (HIV-1)
[26] = target: HIV-1 Env of isolate MGRM-F1-018 (subtype F), on pseudovirus (HIV-1)
[27] = target: HIV-1 Env of isolate MGRM-G-028 (HIV-1)
[28] = target: HIV-1 JR-CSF Env D185A (HIV-1 (isolate JR-CSF)) (UniProt P20871)
[29] = target: HIV-1 JR-CSF Env E172A (HIV-1 (isolate JR-CSF)) (UniProt P20871)
[30] = target: HIV-1 JR-CSF Env E466A (HIV-1 (isolate JR-CSF)) (UniProt P20871)
[31] = target: HIV-1 JR-CSF Env F468A (HIV-1 (isolate JR-CSF)) (UniProt P20871)
[32] = target: HIV-1 JR-CSF Env N160K (HIV-1 (isolate JR-CSF)) (UniProt P20871)
[33] = target: HIV-1 JR-CSF Env N197A (HIV-1 (isolate JR-CSF)) (UniProt P20871)

## 4838_L06 (PGT-121) (antibody)
[1]
  IC50, pseudovirus neutralization: 5 ng/mL
[2]
  IC50 (µg/mL), pseudovirus neutralization: > 50 µg/mL
[3]
  IC50 (µg/mL), pseudovirus neutralization: 0.009 µg/mL
[4]
  IC50 (µg/mL), pseudovirus neutralization: > 50 µg/mL
[5]
  IC50 (µg/mL) neutralization: 7.23 µg/mL
[6]
  IC50 (µg/mL) neutralization: 0.011 µg/mL
[7]
  IC50: 16.9 µg/mL
[8]
  IC50: 0.167 µg/mL
[9]
  IC50, pseudovirus neutralization: 0.036 µg/mL

## PGT-122 (antibody)
[10]
  IC50 neutralization: 7.2 ng/mL
[11]
  IC50 (µg/mL), pseudovirus neutralization: > 50 µg/mL
[12]
  IC50 (µg/mL), pseudovirus neutralization: 0.068 µg/mL
[13]
  IC50 (µg/mL), pseudovirus neutralization: 42.4 µg/mL
[14]
  IC50 (µg/mL), pseudovirus neutralization: > 50 µg/mL

## 5329_C19 (PGT-136) (antibody)
[11]
  neutralization IC50: > 50 µg/mL
[12]
  neutralization IC50: > 50 µg/mL
[15]
  IC50: > 50 µg/mL
[13]
  neutralization IC50: > 50 µg/mL
[16]
  IC50: 13.6 µg/mL
[17]
  IC50, single-round pseudovirus neutralization: > 50 µg/mL
[18]
  IC50, single-round pseudovirus neutralization: > 50 µg/mL
[19]
  IC50, single-round pseudovirus neutralization: > 50 µg/mL
[20]
  IC50, single-round pseudovirus neutralization: > 50 µg/mL
[21]
  IC50, single-round pseudovirus neutralization: > 50 µg/mL
[22]
  IC50, single-round pseudovirus neutralization: > 50 µg/mL
[23]
  IC50: 3.2 µg/mL
[24]
  IC50: > 50 µg/mL
[25]
  IC50, pseudovirus neutralization: > 50 µg/mL
[26]
  IC50, pseudovirus neutralization: > 50 µg/mL
[27]
  IC50, pseudovirus neutralization: > 50 µg/mL

## 5141_B17 (PGT-126) (antibody)
[1]
  IC50, pseudovirus neutralization: 22 ng/mL
[2]
  IC50 (µg/mL), pseudovirus neutralization: > 50 µg/mL
[3]
  IC50 (µg/mL), pseudovirus neutralization: 0.019 µg/mL
[4]
  IC50 (µg/mL), pseudovirus neutralization: > 50 µg/mL
[5]
  IC50 (µg/mL) neutralization: > 50 µg/mL
[6]
  IC50 (µg/mL) neutralization: 15.6 µg/mL
[7]
  IC50: > 50 µg/mL
[8]
  IC50: > 50 µg/mL
[27]
  IC50, pseudovirus neutralization: 0.012 µg/mL
[28]
  Fold IC50 increase relative to wild-type: 1 fold
[29]
  Fold IC50 increase relative to wild-type: 0.7 fold
[30]
  Fold IC50 increase relative to wild-type: 1.4 fold
[31]
  Fold IC50 increase relative to wild-type: 0.7 fold
[32]
  Fold IC50 increase relative to wild-type: 0.5 fold
[33]
  Fold IC50 increase relative to wild-type: 1.1 fold
[9]
  IC50, pseudovirus neutralization: 0.027 µg/mL

## 5345_I01 (PGT-137) (antibody)
[11]
  neutralization IC50: > 50 µg/mL
[12]
  neutralization IC50: > 50 µg/mL
[15]
  IC50: > 50 µg/mL
[13]
  neutralization IC50: > 50 µg/mL
[16]
  IC50: 0.408 µg/mL
[17]
  IC50, single-round pseudovirus neutralization: > 50 µg/mL
[18]
  IC50, single-round pseudovirus neutralization: > 50 µg/mL
[19]
  IC50, single-round pseudovirus neutralization: > 50 µg/mL
[20]
  IC50, single-round pseudovirus neutralization: > 50 µg/mL
[21]
  IC50, single-round pseudovirus neutralization: > 50 µg/mL
[22]
  IC50, single-round pseudovirus neutralization: > 50 µg/mL
[23]
  IC50: 0.23 µg/mL
[24]
  IC50: > 50 µg/mL
[25]
  IC50, pseudovirus neutralization: > 50 µg/mL
[26]
  IC50, pseudovirus neutralization: > 50 µg/mL
[27]
  IC50, pseudovirus neutralization: > 50 µg/mL

## 4877_D15 (PGT-122) (antibody)
[1]
  IC50, pseudovirus neutralization: 6 ng/mL
[2]
  IC50 (µg/mL), pseudovirus neutralization: > 50 µg/mL
[3]
  IC50 (µg/mL), pseudovirus neutralization: 0.013 µg/mL
[4]
  IC50 (µg/mL), pseudovirus neutralization: > 50 µg/mL
[5]
  IC50 (µg/mL) neutralization: 32.6 µg/mL
[6]
  IC50 (µg/mL) neutralization: 0.039 µg/mL
[7]
  IC50: > 50 µg/mL
[8]
  IC50: 0.321 µg/mL
[27]
  IC50, pseudovirus neutralization: 0.01 µg/mL
[9]
  IC50, pseudovirus neutralization: 0.066 µg/mL

## 5123_A06 (PGT-125) (antibody)
[1]
  IC50, pseudovirus neutralization: 10 ng/mL
[2]
  IC50 (µg/mL), pseudovirus neutralization: > 50 µg/mL
[3]
  IC50 (µg/mL), pseudovirus neutralization: 0.03 µg/mL
[4]
  IC50 (µg/mL), pseudovirus neutralization: 0.04 µg/mL
[5]
  IC50 (µg/mL) neutralization: > 50 µg/mL
[6]
  IC50 (µg/mL) neutralization: > 50 µg/mL
[7]
  IC50: > 50 µg/mL
[8]
  IC50: > 50 µg/mL
[27]
  IC50, pseudovirus neutralization: 0.012 µg/mL
[28]
  Fold IC50 increase relative to wild-type: 0.6 fold
[29]
  Fold IC50 increase relative to wild-type: 1.8 fold
[30]
  Fold IC50 increase relative to wild-type: 1.6 fold
[31]
  Fold IC50 increase relative to wild-type: 1 fold
[32]
  Fold IC50 increase relative to wild-type: 0.5 fold
[33]
  Fold IC50 increase relative to wild-type: 1 fold
[9]
  IC50, pseudovirus neutralization: 0.036 µg/mL
